Results taken from article PMC9482650, “Quantitative fragmentomics allow affinity mapping of interactomes” (Nature Communications, 2022).

The binders below were run against RGS3, P49796-9 (assay: holdup assay). Conditions: plain residues with an end cap or a label only (N-terminal biotin on a linker: ttds).
Parameters: key: below the threshold = too weak to quantify, mostly under pKd 3.1 to 4

Sequence of RGS3, P49796-9 (P49796 other isoform, or with tags, fused parts or gaps): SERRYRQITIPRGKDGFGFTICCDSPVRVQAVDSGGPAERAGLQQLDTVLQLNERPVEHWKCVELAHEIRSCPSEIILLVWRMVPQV

Binder	pKd
SEKHFRETEV [HTLV1-TAX1, P03409]	below the threshold
RRVRKLPSTTL [RPS6KA1, Q15418]	below the threshold
CLDTSRETDL [KCNA5, P22460]	below the threshold

These binders were tested against CNKSR3, Q6P9H4 (assay: holdup assay). Conditions: plain residues with an end cap or a label only (N-terminal biotin on a linker: ttds).
Sequence of CNKSR3, Q6P9H4 (Q6P9H4 203-303): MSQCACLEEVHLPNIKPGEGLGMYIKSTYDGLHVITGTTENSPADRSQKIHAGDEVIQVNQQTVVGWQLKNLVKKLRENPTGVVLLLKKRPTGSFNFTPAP
Parameters: key: below the threshold = too weak to quantify, mostly under pKd 3.1 to 4

Binder	pKd
SEKHFRETEV [HTLV1-TAX1, P03409]	below the threshold
RRVRKLPSTTL [RPS6KA1, Q15418]	below the threshold
CLDTSRETDL [KCNA5, P22460]	below the threshold

What follows are binders tested against IL16_2, Q14005 (assay: holdup assay). Conditions: plain residues with an end cap or a label only (N-terminal biotin on a linker: ttds).
Sequence of IL16_2, Q14005 (Q14005 350-450): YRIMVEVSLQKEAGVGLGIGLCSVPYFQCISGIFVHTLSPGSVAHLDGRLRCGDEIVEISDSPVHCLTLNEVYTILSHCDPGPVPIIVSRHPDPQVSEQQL
Parameters: key: below the threshold = too weak to quantify, mostly under pKd 3.1 to 4

Binder	pKd
SEKHFRETEV [HTLV1-TAX1, P03409]	below the threshold
RRVRKLPSTTL [RPS6KA1, Q15418]	below the threshold
CLDTSRETDL [KCNA5, P22460]	below the threshold

Each binder was assayed against PARD3B_2, Q8TEW8 (assay: holdup assay). Conditions: plain residues with an end cap or a label only (N-terminal biotin on a linker: ttds).
Sequence of PARD3B_2, Q8TEW8 (Q8TEW8 376-471): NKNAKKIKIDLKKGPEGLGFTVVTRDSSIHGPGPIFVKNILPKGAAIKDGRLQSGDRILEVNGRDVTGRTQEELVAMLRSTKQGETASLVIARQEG
Parameters: key: below the threshold = too weak to quantify, mostly under pKd 3.1 to 4

Binder	pKd
SEKHFRETEV [HTLV1-TAX1, P03409]	3.97
RRVRKLPSTTL [RPS6KA1, Q15418]	below the threshold
CLDTSRETDL [KCNA5, P22460]	below the threshold

The binders below were run against SDCBP_1, O00560 (assay: holdup assay). Conditions: plain residues with an end cap or a label only (N-terminal biotin on a linker: ttds).
Sequence of SDCBP_1, O00560 (O00560 111-198): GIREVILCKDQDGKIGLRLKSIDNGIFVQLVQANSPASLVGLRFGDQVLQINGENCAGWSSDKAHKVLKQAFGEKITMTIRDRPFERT
Parameters: key: below the threshold = too weak to quantify, mostly under pKd 3.1 to 4

Binder	pKd
SEKHFRETEV [HTLV1-TAX1, P03409]	below the threshold
RRVRKLPSTTL [RPS6KA1, Q15418]	below the threshold
CLDTSRETDL [KCNA5, P22460]	below the threshold

These binders were tested against T1, SYNPO2L, Q9H987 (assay: holdup assay). Conditions: plain residues with an end cap or a label only (N-terminal biotin on a linker: ttds).
T1 sequence (Q9H987 1-98, limits assumed, looked up): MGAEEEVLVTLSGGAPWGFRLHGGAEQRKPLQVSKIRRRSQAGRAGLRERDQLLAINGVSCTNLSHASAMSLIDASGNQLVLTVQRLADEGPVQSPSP
Parameters: key: below the threshold = too weak to quantify, mostly under pKd 3.1 to 4

Binder	pKd
SEKHFRETEV [HTLV1-TAX1, P03409]	below the threshold
RRVRKLPSTTL [RPS6KA1, Q15418]	below the threshold
CLDTSRETDL [KCNA5, P22460]	below the threshold

These binders were tested against T2, MPDZ_7, O75970 (assay: holdup assay). Conditions: plain residues with an end cap or a label only (N-terminal biotin on a linker: ttds).
T2 sequence (O75970 1146-1253, limits assumed, looked up): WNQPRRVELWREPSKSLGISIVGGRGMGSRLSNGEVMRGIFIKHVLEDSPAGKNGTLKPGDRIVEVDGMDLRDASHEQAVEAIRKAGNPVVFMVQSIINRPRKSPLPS
Parameters: key: below the threshold = too weak to quantify, mostly under pKd 3.1 to 4

Binder	pKd
SEKHFRETEV [HTLV1-TAX1, P03409]	4.44
RRVRKLPSTTL [RPS6KA1, Q15418]	below the threshold
CLDTSRETDL [KCNA5, P22460]	below the threshold

The binders below were run against T3, PTPN13_5, Q12923 (assay: holdup assay). Conditions: plain residues with an end cap or a label only (N-terminal biotin on a linker: ttds).
T3 sequence (Q12923 1877-1975, limits assumed, looked up): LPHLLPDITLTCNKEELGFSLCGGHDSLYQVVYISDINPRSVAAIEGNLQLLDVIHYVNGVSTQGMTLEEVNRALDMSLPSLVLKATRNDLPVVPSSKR
Parameters: key: below the threshold = too weak to quantify, mostly under pKd 3.1 to 4

Binder	pKd
SEKHFRETEV [HTLV1-TAX1, P03409]	below the threshold
RRVRKLPSTTL [RPS6KA1, Q15418]	3.84
CLDTSRETDL [KCNA5, P22460]	below the threshold

Each binder was assayed against T4, SHROOM2, Q13796 (assay: holdup assay). Conditions: plain residues with an end cap or a label only (N-terminal biotin on a linker: ttds).
T4 sequence (Q13796 21-118, limits assumed, looked up): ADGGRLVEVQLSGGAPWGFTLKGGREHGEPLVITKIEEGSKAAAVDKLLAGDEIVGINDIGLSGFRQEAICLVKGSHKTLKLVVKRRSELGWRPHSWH
Parameters: key: below the threshold = too weak to quantify, mostly under pKd 3.1 to 4

Binder	pKd
SEKHFRETEV [HTLV1-TAX1, P03409]	below the threshold
RRVRKLPSTTL [RPS6KA1, Q15418]	3.61
CLDTSRETDL [KCNA5, P22460]	4.22

What follows are binders tested against T5, MPDZ_6, O75970 (assay: holdup assay). Conditions: plain residues with an end cap or a label only (N-terminal biotin on a linker: ttds).
T5 sequence (O75970 1003-1099, limits assumed, looked up): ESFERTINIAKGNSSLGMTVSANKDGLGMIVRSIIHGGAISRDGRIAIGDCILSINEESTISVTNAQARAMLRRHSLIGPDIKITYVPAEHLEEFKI
Parameters: key: below the threshold = too weak to quantify, mostly under pKd 3.1 to 4

Binder	pKd
SEKHFRETEV [HTLV1-TAX1, P03409]	below the threshold
RRVRKLPSTTL [RPS6KA1, Q15418]	below the threshold
CLDTSRETDL [KCNA5, P22460]	below the threshold

Each binder was assayed against MAGI1_3, Q96QZ7 (assay: holdup assay). Conditions: plain residues with an end cap or a label only (N-terminal biotin on a linker: ttds).
Sequence of MAGI1_3, Q96QZ7 (Q96QZ7 638-725): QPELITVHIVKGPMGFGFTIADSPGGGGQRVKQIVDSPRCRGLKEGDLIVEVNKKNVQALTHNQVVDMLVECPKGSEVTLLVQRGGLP
Parameters: key: below the threshold = too weak to quantify, mostly under pKd 3.1 to 4

Binder	pKd
SEKHFRETEV [HTLV1-TAX1, P03409]	4.75
RRVRKLPSTTL [RPS6KA1, Q15418]	below the threshold
CLDTSRETDL [KCNA5, P22460]	below the threshold

The binders below were run against RIMS2, Q9UQ26 (assay: holdup assay). Conditions: plain residues with an end cap or a label only (N-terminal biotin on a linker: ttds).
Sequence of RIMS2, Q9UQ26 (Q9UQ26 637-758): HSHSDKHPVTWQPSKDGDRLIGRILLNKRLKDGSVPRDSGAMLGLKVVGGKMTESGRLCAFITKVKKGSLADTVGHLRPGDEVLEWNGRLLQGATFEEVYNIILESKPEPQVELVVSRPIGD
Parameters: key: below the threshold = too weak to quantify, mostly under pKd 3.1 to 4

Binder	pKd
SEKHFRETEV [HTLV1-TAX1, P03409]	below the threshold
RRVRKLPSTTL [RPS6KA1, Q15418]	below the threshold
CLDTSRETDL [KCNA5, P22460]	below the threshold

These binders were tested against MAGI3_3, Q5TCQ9 (assay: holdup assay). Conditions: plain residues with an end cap or a label only (N-terminal biotin on a linker: ttds).
Sequence of MAGI3_3, Q5TCQ9 (Q5TCQ9 572-655): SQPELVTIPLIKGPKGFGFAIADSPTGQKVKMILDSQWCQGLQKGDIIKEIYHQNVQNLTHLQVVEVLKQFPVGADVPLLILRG
Parameters: key: below the threshold = too weak to quantify, mostly under pKd 3.1 to 4

Binder	pKd
SEKHFRETEV [HTLV1-TAX1, P03409]	4.36
RRVRKLPSTTL [RPS6KA1, Q15418]	below the threshold
CLDTSRETDL [KCNA5, P22460]	below the threshold

Each binder was assayed against MAGI1_6, Q96QZ7 (assay: holdup assay). Conditions: plain residues with an end cap or a label only (N-terminal biotin on a linker: ttds).
Sequence of MAGI1_6, Q96QZ7 (Q96QZ7 1146-1238): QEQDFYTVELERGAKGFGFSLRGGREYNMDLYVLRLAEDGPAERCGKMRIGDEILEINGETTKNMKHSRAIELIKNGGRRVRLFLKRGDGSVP
Parameters: key: below the threshold = too weak to quantify, mostly under pKd 3.1 to 4

Binder	pKd
SEKHFRETEV [HTLV1-TAX1, P03409]	4.41
RRVRKLPSTTL [RPS6KA1, Q15418]	below the threshold
CLDTSRETDL [KCNA5, P22460]	4.55

What follows are binders tested against RIMS1, Q86UR5 (assay: holdup assay). Conditions: plain residues with an end cap or a label only (N-terminal biotin on a linker: ttds).
Sequence of RIMS1, Q86UR5 (Q86UR5 584-692): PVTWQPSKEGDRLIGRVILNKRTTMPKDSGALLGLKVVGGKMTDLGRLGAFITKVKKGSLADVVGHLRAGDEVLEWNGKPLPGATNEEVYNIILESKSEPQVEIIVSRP
Parameters: key: below the threshold = too weak to quantify, mostly under pKd 3.1 to 4

Binder	pKd
SEKHFRETEV [HTLV1-TAX1, P03409]	below the threshold
RRVRKLPSTTL [RPS6KA1, Q15418]	below the threshold
CLDTSRETDL [KCNA5, P22460]	below the threshold

Each binder was assayed against T6, USH1C_1, Q9Y6N9 (assay: holdup assay). Conditions: plain residues with an end cap or a label only (N-terminal biotin on a linker: ttds).
T6 sequence (Q9Y6N9 82-179, limits assumed, looked up): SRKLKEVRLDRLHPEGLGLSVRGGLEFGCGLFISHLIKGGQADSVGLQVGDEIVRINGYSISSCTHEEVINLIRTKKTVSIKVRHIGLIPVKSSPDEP
Parameters: key: below the threshold = too weak to quantify, mostly under pKd 3.1 to 4

Binder	pKd
SEKHFRETEV [HTLV1-TAX1, P03409]	below the threshold
CLDTSRETDL [KCNA5, P22460]	below the threshold

Each binder was assayed against T7, SNTB2, Q13425 (assay: holdup assay). Conditions: plain residues with an end cap or a label only (N-terminal biotin on a linker: ttds).
T7 sequence (Q13425 110-208, limits assumed, looked up): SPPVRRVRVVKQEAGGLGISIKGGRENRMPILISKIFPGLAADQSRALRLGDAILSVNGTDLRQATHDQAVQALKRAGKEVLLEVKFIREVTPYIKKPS
Parameters: key: below the threshold = too weak to quantify, mostly under pKd 3.1 to 4

Binder	pKd
CLDTSRETDL [KCNA5, P22460]	4.91

What follows are binders tested against NHERF2_1, Q15599 (assay: holdup assay). Conditions: plain residues with an end cap or a label only (N-terminal biotin on a linker: ttds).
Sequence of NHERF2_1, Q15599 (Q15599 9-91): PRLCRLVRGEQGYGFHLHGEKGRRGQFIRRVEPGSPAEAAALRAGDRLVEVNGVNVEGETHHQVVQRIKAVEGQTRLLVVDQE
Parameters: key: below the threshold = too weak to quantify, mostly under pKd 3.1 to 4

Binder	pKd
SEKHFRETEV [HTLV1-TAX1, P03409]	3.95
RRVRKLPSTTL [RPS6KA1, Q15418]	below the threshold
CLDTSRETDL [KCNA5, P22460]	below the threshold

These binders were tested against PDLIM4, P50479 (assay: holdup assay). Conditions: plain residues with an end cap or a label only (N-terminal biotin on a linker: ttds).
Sequence of PDLIM4, P50479 (P50479 1-83): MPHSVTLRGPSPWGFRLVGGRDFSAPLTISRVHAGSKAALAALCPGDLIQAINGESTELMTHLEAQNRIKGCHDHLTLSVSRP
Parameters: key: below the threshold = too weak to quantify, mostly under pKd 3.1 to 4

Binder	pKd
SEKHFRETEV [HTLV1-TAX1, P03409]	4.54
RRVRKLPSTTL [RPS6KA1, Q15418]	below the threshold
CLDTSRETDL [KCNA5, P22460]	4.26

The binders below were run against MAGI1_4, Q96QZ7 (assay: holdup assay). Conditions: plain residues with an end cap or a label only (N-terminal biotin on a linker: ttds).
Sequence of MAGI1_4, Q96QZ7 (Q96QZ7 other isoform, or with tags, fused parts or gaps): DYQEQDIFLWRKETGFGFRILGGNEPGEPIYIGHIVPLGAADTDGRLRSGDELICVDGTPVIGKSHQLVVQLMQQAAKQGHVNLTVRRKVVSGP
Parameters: key: below the threshold = too weak to quantify, mostly under pKd 3.1 to 4

Binder	pKd
SEKHFRETEV [HTLV1-TAX1, P03409]	4.28
RRVRKLPSTTL [RPS6KA1, Q15418]	below the threshold
CLDTSRETDL [KCNA5, P22460]	below the threshold

What follows are binders tested against T8, USH1C_2, Q9Y6N9 (assay: holdup assay). Conditions: plain residues with an end cap or a label only (N-terminal biotin on a linker: ttds).
T8 sequence (Q9Y6N9 206-303, limits assumed, looked up): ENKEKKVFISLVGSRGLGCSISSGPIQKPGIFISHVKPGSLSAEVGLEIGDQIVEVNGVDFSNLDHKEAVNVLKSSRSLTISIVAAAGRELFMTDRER
Parameters: key: below the threshold = too weak to quantify, mostly under pKd 3.1 to 4

Binder	pKd
SEKHFRETEV [HTLV1-TAX1, P03409]	below the threshold
RRVRKLPSTTL [RPS6KA1, Q15418]	below the threshold
CLDTSRETDL [KCNA5, P22460]	below the threshold

What follows are binders tested against PTPN13_2, Q12923 (assay: holdup assay). Conditions: plain residues with an end cap or a label only (N-terminal biotin on a linker: ttds).
Sequence of PTPN13_2, Q12923 (Q12923 1363-1462): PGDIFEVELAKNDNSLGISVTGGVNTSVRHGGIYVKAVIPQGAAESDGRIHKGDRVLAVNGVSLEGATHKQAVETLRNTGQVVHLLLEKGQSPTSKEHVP
Parameters: key: below the threshold = too weak to quantify, mostly under pKd 3.1 to 4

Binder	pKd
SEKHFRETEV [HTLV1-TAX1, P03409]	below the threshold
RRVRKLPSTTL [RPS6KA1, Q15418]	below the threshold
CLDTSRETDL [KCNA5, P22460]	below the threshold

These binders were tested against DLG2_1, Q15700 (assay: holdup assay). Conditions: plain residues with an end cap or a label only (N-terminal biotin on a linker: ttds).
Parameters: key: below the threshold = too weak to quantify, mostly under pKd 3.1 to 4

Binder	pKd
SEKHFRETEV [HTLV1-TAX1, P03409]	5.16
RRVRKLPSTTL [RPS6KA1, Q15418]	3.83
CLDTSRETDL [KCNA5, P22460]	below the threshold

Each binder was assayed against T9, NHERF1_2, O14745 (assay: holdup assay). Conditions: plain residues with an end cap or a label only (N-terminal biotin on a linker: ttds).
T9 sequence (O14745 149-244, limits assumed, looked up): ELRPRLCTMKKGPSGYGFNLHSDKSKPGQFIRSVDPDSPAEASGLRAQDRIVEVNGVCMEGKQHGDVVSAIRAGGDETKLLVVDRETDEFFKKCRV
Parameters: key: below the threshold = too weak to quantify, mostly under pKd 3.1 to 4

Binder	pKd
SEKHFRETEV [HTLV1-TAX1, P03409]	below the threshold
RRVRKLPSTTL [RPS6KA1, Q15418]	below the threshold
CLDTSRETDL [KCNA5, P22460]	below the threshold

Each binder was assayed against T10, PDZD2_4, O15018 (assay: holdup assay). Conditions: plain residues with an end cap or a label only (N-terminal biotin on a linker: ttds).
T10 sequence (O15018 723-823, limits assumed, looked up): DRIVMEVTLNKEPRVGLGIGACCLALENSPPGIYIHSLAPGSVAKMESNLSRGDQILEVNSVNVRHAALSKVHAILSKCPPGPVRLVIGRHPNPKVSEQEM
Parameters: key: below the threshold = too weak to quantify, mostly under pKd 3.1 to 4

Binder	pKd
SEKHFRETEV [HTLV1-TAX1, P03409]	below the threshold
RRVRKLPSTTL [RPS6KA1, Q15418]	below the threshold
CLDTSRETDL [KCNA5, P22460]	below the threshold

The binders below were run against T11, PARD6B, Q9BYG5 (assay: holdup assay). Conditions: plain residues with an end cap or a label only (N-terminal biotin on a linker: ttds).
T11 sequence (Q9BYG5 152-260, limits assumed, looked up): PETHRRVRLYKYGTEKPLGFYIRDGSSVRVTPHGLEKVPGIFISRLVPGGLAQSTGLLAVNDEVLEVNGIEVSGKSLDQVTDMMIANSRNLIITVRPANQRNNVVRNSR
Parameters: key: below the threshold = too weak to quantify, mostly under pKd 3.1 to 4

Binder	pKd
SEKHFRETEV [HTLV1-TAX1, P03409]	below the threshold
RRVRKLPSTTL [RPS6KA1, Q15418]	below the threshold
CLDTSRETDL [KCNA5, P22460]	below the threshold
